Substitutions are numbered along the chain they refer to. Numbers in names are those of the source. Like-named read-outs stand apart in the source and are kept apart here.
What was measured:
CATPO T188A variant = CATPO T188A variant (Scytalidium thermophilum (Humicola insolens), UniProt M4GGR5, T207A); assay: biochemical
CATPO E484A variant = CATPO E484A variant (Scytalidium thermophilum (Humicola insolens), UniProt M4GGR5, E503A); assay: biochemical
CATPO T188D variant = CATPO T188D variant (Scytalidium thermophilum (Humicola insolens), UniProt M4GGR5, T207D); assay: biochemical
CATPO T188D variant, sequence (M4GGR5 entry or part of it T207D): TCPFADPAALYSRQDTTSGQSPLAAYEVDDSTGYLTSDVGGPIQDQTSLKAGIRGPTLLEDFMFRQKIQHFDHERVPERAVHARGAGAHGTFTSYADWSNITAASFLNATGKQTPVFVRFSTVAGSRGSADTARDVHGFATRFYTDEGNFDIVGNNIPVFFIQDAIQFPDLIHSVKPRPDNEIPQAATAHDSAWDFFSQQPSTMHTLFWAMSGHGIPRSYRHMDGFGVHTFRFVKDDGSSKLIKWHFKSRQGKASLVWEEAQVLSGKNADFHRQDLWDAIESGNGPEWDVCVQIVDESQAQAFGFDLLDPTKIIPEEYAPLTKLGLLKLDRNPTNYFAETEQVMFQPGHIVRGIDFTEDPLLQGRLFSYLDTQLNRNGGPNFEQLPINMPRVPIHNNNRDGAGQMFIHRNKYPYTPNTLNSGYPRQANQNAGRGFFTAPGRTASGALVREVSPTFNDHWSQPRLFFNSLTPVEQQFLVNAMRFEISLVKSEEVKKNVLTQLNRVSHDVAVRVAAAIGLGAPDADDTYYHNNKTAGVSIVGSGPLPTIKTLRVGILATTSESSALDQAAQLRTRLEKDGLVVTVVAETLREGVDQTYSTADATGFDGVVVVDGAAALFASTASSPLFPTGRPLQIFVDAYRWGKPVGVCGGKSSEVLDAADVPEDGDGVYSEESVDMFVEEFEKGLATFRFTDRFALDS

CATPO = CATPO (Scytalidium thermophilum (Humicola insolens), UniProt M4GGR5); assay: Inhibition of catechol oxidation; assay type: biochemical; settings: for inhibition type: catechol oxidase activity of wild-type CATPO, Lineweaver–Burk
CATPO, sequence (M4GGR5 entry or part of it): as the sequence (M4GGR5 entry or part of it T207D) above

CATPO E484D variant = CATPO E484D variant (Scytalidium thermophilum (Humicola insolens), UniProt M4GGR5, E503D); assay: biochemical
CATPO E484D variant, sequence (M4GGR5 entry or part of it E503D): as the sequence (M4GGR5 entry or part of it T207D) above

CATPO T188F variant = CATPO T188F variant (Scytalidium thermophilum (Humicola insolens), UniProt M4GGR5, T207F); assay: biochemical
CATPO T188F variant, sequence (M4GGR5 entry or part of it T207F): as the sequence (M4GGR5 entry or part of it T207D) above

CATPO E484I variant = CATPO E484I variant (Scytalidium thermophilum (Humicola insolens), UniProt M4GGR5, E503I); assay: biochemical
CATPO E484I variant, sequence (M4GGR5 entry or part of it E503I): as the sequence (M4GGR5 entry or part of it T207D) above

CATPO T188I variant = CATPO T188I variant (Scytalidium thermophilum (Humicola insolens), UniProt M4GGR5, T207I); assay: biochemical
CATPO T188I variant, sequence (M4GGR5 entry or part of it T207I): as the sequence (M4GGR5 entry or part of it T207D) above

[1] = substrate: Oc1ccccc1O; assay: Phenol oxidase activity (H2O2-independent) measured spectrophotometrically by product formation at pH 7.0, 60 C, Michaelis-Menten fit.; assay type: biochemical
Method: (§1) All inhibition assays were performed in triplicate.

[2] = substrate: CCn1c(=NN=c2sc3cc(S(=O)(=O)O)ccc3n2CC)sc2cc(S(=O)(=O)O)ccc21; assay: purified protein, by the assay type; settings: 60.0 °C
[3] = substrate: Cc1ccc(O)c(O)c1; assay: Spectrophotometric phenol oxidase assay without H2O2 at pH 7.0 and 60 °C, initial rates fitted to the Michaelis-Menten equation.; assay type: biochemical
Method: as §1

[4] = substrate: Oc1ccc(O)cc1; assay: as above; assay type: biochemical
Method: as §1

[5] = substrate: CC(C)(C)c1ccc(O)c(O)c1; assay: as above; assay type: biochemical
Method: as §1

CATPO E484A variant, sequence (M4GGR5 entry or part of it E503A): as the sequence (M4GGR5 entry or part of it T207D) above
CATPO T188A variant, sequence (M4GGR5 entry or part of it T207A): as the sequence (M4GGR5 entry or part of it T207D) above

Which results are given for `O=C(NO)c1ccccc1O` [Salicylhydroxamic acid, salicylhydroxamic acid]?
Ki (CATPO T188A variant): 2.2 ± 0.4 mM; Ki (CATPO E484A variant): 6.7 ± 1.1 mM; Ki (CATPO T188D variant): 5.4 ± 0.4 mM; Ki (CATPO): 2.2 ± 0.4 mM; inhibition type (CATPO): competitive; Ki (CATPO E484D variant): 2 ± 0.4 mM; Ki (CATPO T188F variant): 5.5 ± 0.7 mM; Ki (CATPO E484I variant): 5.4 ± 0.5 mM; Ki (CATPO T188I variant): 5.4 ± 0.9 mM

`[N-]=[N+]=[N-].[Na+]` [Sodium azide, sodium azide] was tested. Which Ki (CATPO T188A variant; catechol oxidation by T188A, read-out: K i) did it give?
The Ki was 42 ± 1.4 mM.

What about the Ki (CATPO E484A variant; catechol oxidation by E484A, read-out: K i) of the same molecule?
Its Ki is 74 ± 4.8 mM.

And the Ki (CATPO T188D variant; catechol oxidation by T188D, read-out: K i)?
The Ki was 55 ± 5 mM.

What about the inhibition type (CATPO) of the same molecule?
Its inhibition type is “competitive”.

What about the Ki (CATPO; catechol oxidation by CATPO, catechol 1 to 100 mM, read-out: K i) of the same molecule?
Its Ki is 42 ± 1.2 mM.

What about the Ki (CATPO E484D variant; catechol oxidation by E484D, read-out: K i) of the same molecule?
Its Ki is 41 ± 4.1 mM.

What about the Ki (CATPO T188F variant; catechol oxidation by T188F, read-out: K i) of the same molecule?
The Ki was 62 ± 2.5 mM.

And the Ki (CATPO E484I variant; catechol oxidation by E484I, read-out: K i)?
The Ki was 56 ± 1.6 mM.

And the Ki (CATPO T188I variant; catechol oxidation by T188I, read-out: K i)?
Its Ki is 60 ± 6 mM.

B1: T188F (Mycothermus thermophilus; T207F) (protein)
chain: TCPFADPAALYSRQDTTSGQSPLAAYEVDDSTGYLTSDVGGPIQDQTSLKAGIRGPTLLEDFMFRQKIQHFDHERVPERAVHARGAGAHGTFTSYADWSNITAASFLNATGKQTPVFVRFSTVAGSRGSADTARDVHGFATRFYTDEGNFDIVGNNIPVFFIQDAIQFPDLIHSVKPRPDNEIPQAAFAHDSAWDFFSQQPSTMHTLFWAMSGHGIPRSYRHMDGFGVHTFRFVKDDGSSKLIKWHFKSRQGKASLVWEEAQVLSGKNADFHRQDLWDAIESGNGPEWDVCVQIVDESQAQAFGFDLLDPTKIIPEEYAPLTKLGLLKLDRNPTNYFAETEQVMFQPGHIVRGIDFTEDPLLQGRLFSYLDTQLNRNGGPNFEQLPINMPRVPIHNNNRDGAGQMFIHRNKYPYTPNTLNSGYPRQANQNAGRGFFTAPGRTASGALVREVSPTFNDHWSQPRLFFNSLTPVEQQFLVNAMRFEISLVKSEEVKKNVLTQLNRVSHDVAVRVAAAIGLGAPDADDTYYHNNKTAGVSIVGSGPLPTIKTLRVGILATTSESSALDQAAQLRTRLEKDGLVVTVVAETLREGVDQTYSTADATGFDGVVVVDGAAALFASTASSPLFPTGRPLQIFVDAYRWGKPVGVCGGKSSEVLDAADVPEDGDGVYSEESVDMFVEEFEKGLATFRFTDRFALDS
notes: recombinant, pET-28-TEV-CATPO; contains heme b; Rz 0.8
What does the source list for B1?
Km [1]: 30 ± 1.0 mM; kcat [1]: 30600 ± 1800 s⁻¹; kcat/Km [1]: 1.02e+06 ± 22000 M⁻¹ s⁻¹; Km [2]: 45 ± 0.5 mM; Km [3]: 32 ± 1.0 mM; Km [4]: 42 ± 1.0 mM; Km [5]: 34 ± 0.4 mM

B2: E484D (Mycothermus thermophilus; E503D) (protein)
chain: B1 chain with F188T, E484D
notes: recombinant, pET-28-TEV-CATPO; contains heme d; Rz 0.8
Which results are given for B2?
Km [1]: 35 ± 0.5 mM; kcat [1]: 7400 ± 296 s⁻¹; kcat/Km [1]: 210000 ± 10500 M⁻¹ s⁻¹; Km [2]: 53 ± 1.0 mM; Km [3]: 36 ± 0.1 mM; Km [4]: 46 ± 0.8 mM; Km [5]: 38 ± 0.5 mM

B3: E484A (Mycothermus thermophilus; E503A) (protein)
chain: B1 chain with F188T, E484A
notes: as for B1
For B3, which Km [1] is on record?
Its Km is 30 ± 1.0 mM.

What about the kcat/Km [1] of the same molecule?
The kcat/Km was 1.45e+06 ± 13000 M⁻¹ s⁻¹.

And the Km [2]?
The Km was 46 ± 1.0 mM.

What about the Km [3] of the same molecule?
Its Km is 33 ± 1.0 mM.

And the Km [4]?
The Km was 43 ± 1.2 mM.

And the Km [5]?
Its Km is 33 ± 0.5 mM.

From publication PMC10836395, “Investigation of how gate residues in the main channel affect the catalytic activity of Scytalidium thermophilum catalase” (Acta Crystallographica. Section D, Structural Biology, 2024)
